Source: patent US20170089895A1

Assays:
[1] = target: HNA-1a K138T modified protein (human) (UniProt O75015); assay: Luminex bead assay, protein on microbeads, PE goat anti-human IgG; reference, 1 by definition
[2] = target: HNA-1a L136A modified protein (human) (UniProt O75015); assay: as above
[3] = target: HNA-1a W131F modified protein (human) (UniProt O75015); assay: as above
[4] = target: HNA-1b K138T modified protein (human) (UniProt O75015); assay: as above
[5] = target: HNA-1b L136A modified protein (human) (UniProt O75015); assay: as above
[6] = target: HNA-1b W131F modified protein (human) (UniProt O75015); assay: as above
[7] = target: HNA-1c K138T modified protein (human) (UniProt O75015); assay: as above
[8] = target: HNA-1c L136A modified protein (human) (UniProt O75015); assay: as above
[9] = target: HNA-1c W131F modified protein (human) (UniProt O75015); assay: as above
[10] = target: Purified HNA-2 protein (CD177) (human) (UniProt Q8N6Q3); assay: as above
Sequence of UniProt Q8N6Q3 (Q8N6Q3 22-408 limits assumed): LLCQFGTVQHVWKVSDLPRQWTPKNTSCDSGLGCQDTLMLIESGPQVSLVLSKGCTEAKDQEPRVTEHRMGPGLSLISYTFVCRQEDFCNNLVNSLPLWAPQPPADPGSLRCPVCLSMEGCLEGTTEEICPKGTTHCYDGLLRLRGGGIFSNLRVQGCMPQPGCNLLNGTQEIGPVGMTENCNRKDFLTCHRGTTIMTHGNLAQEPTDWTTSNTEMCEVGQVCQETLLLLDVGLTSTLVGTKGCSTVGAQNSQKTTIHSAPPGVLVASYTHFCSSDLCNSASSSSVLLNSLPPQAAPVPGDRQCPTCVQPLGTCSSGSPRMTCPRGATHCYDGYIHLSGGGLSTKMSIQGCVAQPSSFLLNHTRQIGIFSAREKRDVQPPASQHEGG

[11] = target: Purified HNA-3a protein (CTL2) (human) (UniProt Q8IWA5); assay: as above
Sequence of UniProt Q8IWA5 (Q8IWA5 whole entry): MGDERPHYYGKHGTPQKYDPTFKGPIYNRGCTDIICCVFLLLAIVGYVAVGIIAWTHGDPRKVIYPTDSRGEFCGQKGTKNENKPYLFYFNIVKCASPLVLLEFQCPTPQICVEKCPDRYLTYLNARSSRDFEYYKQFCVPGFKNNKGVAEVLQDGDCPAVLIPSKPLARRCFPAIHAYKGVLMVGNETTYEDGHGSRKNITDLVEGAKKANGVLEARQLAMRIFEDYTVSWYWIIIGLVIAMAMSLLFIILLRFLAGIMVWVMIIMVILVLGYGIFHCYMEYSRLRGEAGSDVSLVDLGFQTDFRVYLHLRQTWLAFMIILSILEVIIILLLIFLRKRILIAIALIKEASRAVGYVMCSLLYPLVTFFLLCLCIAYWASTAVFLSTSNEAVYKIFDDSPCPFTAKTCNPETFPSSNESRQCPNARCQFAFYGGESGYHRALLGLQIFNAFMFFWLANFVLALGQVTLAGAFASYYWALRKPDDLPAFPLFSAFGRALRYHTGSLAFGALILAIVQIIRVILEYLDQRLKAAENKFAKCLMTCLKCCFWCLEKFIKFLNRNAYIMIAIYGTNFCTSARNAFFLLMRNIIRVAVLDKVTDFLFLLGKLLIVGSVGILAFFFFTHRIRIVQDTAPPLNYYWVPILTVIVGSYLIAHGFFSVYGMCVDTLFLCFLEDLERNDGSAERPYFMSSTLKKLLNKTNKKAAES

[12] = target: wild type HNA-1a protein (Fc gamma receptor type IIIb, FcγRIIIb, CD16b) (human) (UniProt O75015); assay: as above
[13] = target: wild type HNA-1b protein (Fc gamma receptor type IIIb, FcγRIIIb, CD16b) (human) (UniProt O75015); assay: as above
[14] = target: wild type HNA-1c protein (Fc gamma receptor type IIIb, FcγRIIIb, CD16b) (human) (UniProt O75015); assay: as above
[15] = target: HNA-1b K138T modified protein (human) (UniProt O75015); assay: Luminex bead assay, protein on microbeads, negative serum, PE goat anti-human IgG; non-specific IgG background
[16] = target: HNA-1b L136A modified protein (human) (UniProt O75015); assay: as above
[17] = target: HNA-1b W131F modified protein (human) (UniProt O75015); assay: as above
[18] = target: HNA-1c K138T modified protein (human) (UniProt O75015); assay: as above
[19] = target: HNA-1c L136A modified protein (human) (UniProt O75015); assay: as above
[20] = target: HNA-1c W131F modified protein (human) (UniProt O75015); assay: as above
[21] = target: wild type HNA-1b protein (Fc gamma receptor type IIIb, FcγRIIIb, CD16b) (human) (UniProt O75015); assay: as above
[22] = target: wild type HNA-1c protein (Fc gamma receptor type IIIb, FcγRIIIb, CD16b) (human) (UniProt O75015); assay: as above
[23] = target: HNA-1a K138T modified protein (human) (UniProt O75015); assay: Luminex bead assay, protein on microbeads, neat negative serum, PE goat anti-human IgG; non-specific IgG background
[24] = target: HNA-1a L136A modified protein (human) (UniProt O75015); assay: as above
[25] = target: HNA-1a W131F modified protein (human) (UniProt O75015); assay: as above
[26] = target: wild type HNA-1a protein (Fc gamma receptor type IIIb, FcγRIIIb, CD16b) (human) (UniProt O75015); assay: as above
[27] = target: Purified HNA-4a protein (CD11b) (human) (UniProt P11215); assay: Luminex bead assay, protein on microbeads; ratio to negative mouse IgG; 6 tests
[28] = target: Purified HNA-5a protein (CD11a) (human) (UniProt P20701); assay: as above
Sequence of UniProt P20701 (P20701 26-1170 limits assumed): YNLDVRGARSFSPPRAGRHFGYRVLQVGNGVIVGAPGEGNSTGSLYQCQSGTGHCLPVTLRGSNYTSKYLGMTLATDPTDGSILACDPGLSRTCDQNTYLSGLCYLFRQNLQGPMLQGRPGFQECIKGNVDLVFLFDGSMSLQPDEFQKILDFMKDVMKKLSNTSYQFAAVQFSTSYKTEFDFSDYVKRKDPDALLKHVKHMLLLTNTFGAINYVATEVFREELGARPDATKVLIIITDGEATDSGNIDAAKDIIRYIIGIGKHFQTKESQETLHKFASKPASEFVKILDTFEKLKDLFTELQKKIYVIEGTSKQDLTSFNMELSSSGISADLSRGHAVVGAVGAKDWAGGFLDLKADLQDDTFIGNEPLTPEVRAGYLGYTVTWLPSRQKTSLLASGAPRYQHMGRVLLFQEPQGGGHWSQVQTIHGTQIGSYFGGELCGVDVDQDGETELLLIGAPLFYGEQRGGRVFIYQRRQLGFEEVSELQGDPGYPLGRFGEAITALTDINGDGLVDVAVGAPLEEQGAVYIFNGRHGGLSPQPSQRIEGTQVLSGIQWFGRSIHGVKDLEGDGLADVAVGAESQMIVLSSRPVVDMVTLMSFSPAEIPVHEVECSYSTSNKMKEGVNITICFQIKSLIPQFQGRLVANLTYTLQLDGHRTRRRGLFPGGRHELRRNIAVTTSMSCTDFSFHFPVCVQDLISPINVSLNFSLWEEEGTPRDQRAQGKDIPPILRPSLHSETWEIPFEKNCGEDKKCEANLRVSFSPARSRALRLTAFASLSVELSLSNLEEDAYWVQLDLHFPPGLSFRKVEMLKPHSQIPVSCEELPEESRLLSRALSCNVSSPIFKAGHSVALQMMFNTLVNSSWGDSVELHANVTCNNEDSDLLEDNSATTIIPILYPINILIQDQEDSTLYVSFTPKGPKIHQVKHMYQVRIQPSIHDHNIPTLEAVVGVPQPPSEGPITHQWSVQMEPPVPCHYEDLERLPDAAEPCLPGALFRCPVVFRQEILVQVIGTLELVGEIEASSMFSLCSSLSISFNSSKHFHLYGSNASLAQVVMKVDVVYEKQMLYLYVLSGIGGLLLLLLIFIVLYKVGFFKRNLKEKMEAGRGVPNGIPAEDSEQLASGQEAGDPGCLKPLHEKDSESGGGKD

[29] = target: Purified HNA-4a protein (CD11b) (human) (UniProt P11215); assay: Luminex bead assay, protein on microbeads; reference, 1 by definition
[30] = target: Purified HNA-5a protein (CD11a) (human) (UniProt P20701); assay: as above

Negative Sera (#LSNC) (antibody)
Fold Increased Ratio Against Negative Sera [1]: 1 fold
Fold Increased Ratio Against Negative Sera [2]: 1 fold
Fold Increased Ratio Against Negative Sera [3]: 1 fold
Fold Increased Ratio Against Negative Sera [4]: 1 fold
Fold Increased Ratio Against Negative Sera [5]: 1 fold
Fold Increased Ratio Against Negative Sera [6]: 1 fold
Fold Increased Ratio Against Negative Sera [7]: 1 fold
Fold Increased Ratio Against Negative Sera [8]: 1 fold
Fold Increased Ratio Against Negative Sera [9]: 1 fold
detection ratio [10]: 1 fold
detection ratio [11]: 1 fold
Fold Increased Ratio Against Negative Sera [12]: 1 fold
Fold Increased Ratio Against Negative Sera [13]: 1 fold
Fold Increased Ratio Against Negative Sera [14]: 1 fold
Background Value (MFI) [15]: 187 MFI
Background Value (MFI) [16]: 277 MFI
Background Value (MFI) [17]: 183 MFI
Background Value (MFI) [18]: 126 MFI
Background Value (MFI) [19]: 209 MFI
Background Value (MFI) [20]: 181 MFI
Background Value (MFI) [21]: 1970 MFI
Background Value (MFI) [22]: 1500 MFI
Background Value (MFI) [23]: 450 MFI
Background Value (MFI) [24]: 290 MFI
Background Value (MFI) [25]: 417 MFI
Background Value (MFI) [26]: 1910 MFI

Positive mouse IgG (#TS1/18) (antibody)
detection ratio [27]: 543 fold
detection ratio [28]: 5 fold

Positive mouse IgG (#ICRF44) (antibody)
detection ratio [27]: 594 fold
detection ratio [28]: 3 fold

Negative mouse IgG (antibody)
detection ratio [29]: 1 fold
detection ratio [30]: 1 fold
